{
  "source": "paper PMC9405973",
  "about": "“Altered Conformational Landscape upon Sensing Guanine Nucleotides in a Disease Mutant of Elongation Factor-like 1 (EFL1) GTPase” (Biomolecules, 2022)",
  "key": {"[1]": {"substrate": "Nc1nc2c(ncn2[C@@H]2O[C@H](COP(=O)(O)OP(=O)(O)OP(=O)(O)O)[C@@H](O)[C@H]2O)c(=O)[nH]1", "test": "GTP hydrolysis by PNP-coupled Enzchek phosphate assay (MESG, 360 nm), pH 7.5, 5 mM MgCl2, 6 µM Efl1 alone, Michaelis-Menten fit.", "format": "biochemical", "conditions": "25.0 °C", "description": "(§1) Finally, we measured the enzyme kinetics of mutant Efl1 R1086Q as an isolated enzyme and bound to Sdo1 using an enzymatic coupled assay with a purine nucleoside phosphorylase (PNP) enzyme. This analysis was extended to another disease mutation (EFL1 M882K) also located in domain IV of the GTPase using the equivalent yeast variant, Efl1 L910K [17]. The Km and kcat kinetic parameters were calculated using non-linear regression assuming a Michaelis–Menten model (Supplementary Table S1). […] The catalytic constant for mutant R1086Q and the wild-type enzyme consisted of 0.67 min^−1, and it was 0.58 min^−1 for mutant Efl1 L910K. […] In line with the proposed role of Sdo1 as a guanine exchange factor of Efl1, previous results have shown that the interaction of wild-type Efl1 with Sdo1 impacted its Km for GTP, decreasing its value 2–3-fold. The Km values for the complexes formed between Sdo1 and Efl1 mutants decreased by half with respect to their cognate-free counterpart and differed from each other. […] The measured Km value comprises all the microscopic rate constants of the individual reactions occurring in the enzyme, which include the binding to the substrate and product and the corresponding conformational changes.\nHydrolysis of GTP was measured using the Enzchek Phosphate Assay kit (Molecular Probes) as described by Webb. […]\nReactions were initiated and the GTPase was added after 3 min. Time courses were followed by recording the change in absorbance at 360 nm in a Cary 60 UV -Vis spectrophotometer (Agilent Technologies). Background absorbance was recorded prior to the addition of the GTPase and subtracted from the sample signals. The slope of the measured time courses corresponded to the GTP hydrolysis rate. […] Data were analysed by nonlinear regression to the M ichaelis-Menten equation with the program Origin Version 5.0 (OriginLab, Co., Northampton, MA). […]\n(§2) Maximum emission at 440 nm was replotted as a function of nucleotide concentration and analysed"}, "[2]": {"test": "Enzyme kinetics of GTP hydrolysis (PNP coupled assay, Michaelis–Menten)", "format": "biochemical, Saccharomyces cerevisiae", "conditions": "enzyme in complex with Sdo1 (25 µM Sdo1)", "description": "as §1\nHydrolysis of GTP was measured using the Enzchek Phosphate Assay kit (Molecular Probes) as described by Webb. Standard reactions consisted of 100 µL containing 6 µM of Efl1 R1086Q and Efl1 L910K, 0.3 mM MESG, 1.0 U purine nucleoside phosphorylase (PNP) and the indicated amounts of GTP. Measurements done in the presence of effector protein contained 25 µM of Sdo1.\nThe reaction buffer consisted of 50 mM HEPES -KOH pH 7.5, 150 mM NaCl, 5 mM MgCl2.\nReactions were initiated and the GTPase was added after 3 min. Time courses were followed by recording the change in absorbance at 360 nm in a Cary 60 UV -Vis spectrophotometer (Agilent Technologies). Background absorbance was recorded prior to the addition of the GTPase and subtracted from the sample signals. The slope of the measured time courses corresponded to the GTP hydrolysis rate. The concentration of releas ed phosphate was estimated using a molar absorption coefficient at 360 nm of 14,386 M -1 cm-1 previously described in [2]. Data were analysed by nonlinear regression to the M ichaelis-Menten equation with the program Origin Version 5.0 (OriginLab, Co., Northampton, MA). […]\nM HEPES-KOH pH 7.4, 2.5 mM magnesium acetate, 50 mM sucrose, 2 mM DTT, 0.1 mM PMSF, 0.1 mM benzamidine, 8 mM putrescine, 1 mM spermidine. […]\nDilution at the end of each titration was no longer than 2.5% of the initial volume. Data were corrected for the background signal by subtracting the fluorescence of the same ligand concentration without the GTPase in the reaction mixture.\nas §2"}},
  "data": [
    {"molecule": "Efl1 L910K (Saccharomyces cerevisiae S288C; L910K) (protein, recombinantly expressed in S. cerevisiae; isolated GTPase) MPRVESETYKRLQNDPSCIRNICIVAHVDHGKTSLSDSLLASNGIISQRLAGKIRFLDARPDEQLRGITMESSAISLYFRVLRKQEGSDEPLVSEHLVNLIDSPGHIDFSSEVSAASRLCDGAVVLVDVVEGVCSQTVTVLRQCWTEKLKPILVLNKIDRLITELQLTPQEAYIHLSKVIEQVNSVIGSFFANERQLDDLFWREQLEKNENAEYIEKDDSGIYFNPTDNNVIFASAIDGWGFNIGQLAKFYEQKLGAKRENLQKVLWGDFYMDPKTKKIINNKGLKGRSLKPLFTSLILENIWKIYQNIITSRDSEMVEKIAKTLNIKLLARDLRSKDDKQLLRTIMGQWLPVSTAVLLTVIEKLPSPLESQTDRLNTILVSESDTAAMDPRLLKAMKTCDKEGPVSAYVSKMLSIPREELPVESKRIASSDELMERSRKAREEALNAAKHAGMVENMAMMDLNDNSKNTSDLYKRAKDTVMTPEVGEQTKPKPSRNNDVFCVVSEPSSALDLEFEYEGEDDSDSQDNFGLDFVPTDIDPNDPLSSMFEYEEEDPLLESIKQISEDVNDEVDDIFDEKEECLVAFARIYSGTLRVGQEISVLGPKYDPKCPEEHIETAIITHLYLFMGKELVPLDVCPSGNIVGIRGLAGKVLKSGTLIEKGVQGVNLAGVNFHFTPIVRVAVEPANPVEMSKLVRGLKLLDQADPCVHTYVENTGEHILCTAGELHLERCLKDLTERFAGIEITHSEPAIPYRETFLSASDMNPPQNSQLGRGVHELLLSQYKITFRTFPLSGKVTDFLSQHQNSIKNILKTSTSSMDPVIESTGSSFLDKKSLLVAFEEVINQEEKSRELLSGFKVKLAGFGPSRVGCNILLSQDNLLGSLFEGTPAAFEYSDSIKNGFQLAVSEGPKANEPVQGMCVLVESVHKMSQDEIESIEDPRYQQHIVDLSGRLITSTRDAIHEAFLDWSPRIMWAIYSCDIQTSVDVLGKVYAVILQRHGKIISEEMKEGTPFFQIEAHVPVVEAFGLSEDIRKRTSGAAQPQLVFSGFECIDLDPFWVPTTEEELEELGDTADRENIARKHMNAIRRRKGLFIEEKVVENAEKQRTLKKN", "values": [
      {"measurement": "Km", "setting": "[1]", "value": 185, "unit": "µM"}
    ]},
    {"molecule": "Efl1 L910K • Sdo1: binary complex of mutant GTPase Efl1 L910K and effector Sdo1 (protein, UniProt P53893 1-1110; Q07953 1-250, looked up, variant L910K, binary complex) Ribosome assembly protein 1: MPRVESETYKRLQNDPSCIRNICIVAHVDHGKTSLSDSLLASNGIISQRLAGKIRFLDARPDEQLRGITMESSAISLYFRVLRKQEGSDEPLVSEHLVNLIDSPGHIDFSSEVSAASRLCDGAVVLVDVVEGVCSQTVTVLRQCWTEKLKPILVLNKIDRLITELQLTPQEAYIHLSKVIEQVNSVIGSFFANERQLDDLFWREQLEKNENAEYIEKDDSGIYFNPTDNNVIFASAIDGWGFNIGQLAKFYEQKLGAKRENLQKVLWGDFYMDPKTKKIINNKGLKGRSLKPLFTSLILENIWKIYQNIITSRDSEMVEKIAKTLNIKLLARDLRSKDDKQLLRTIMGQWLPVSTAVLLTVIEKLPSPLESQTDRLNTILVSESDTAAMDPRLLKAMKTCDKEGPVSAYVSKMLSIPREELPVESKRIASSDELMERSRKAREEALNAAKHAGMVENMAMMDLNDNSKNTSDLYKRAKDTVMTPEVGEQTKPKPSRNNDVFCVVSEPSSALDLEFEYEGEDDSDSQDNFGLDFVPTDIDPNDPLSSMFEYEEEDPLLESIKQISEDVNDEVDDIFDEKEECLVAFARIYSGTLRVGQEISVLGPKYDPKCPEEHIETAIITHLYLFMGKELVPLDVCPSGNIVGIRGLAGKVLKSGTLIEKGVQGVNLAGVNFHFTPIVRVAVEPANPVEMSKLVRGLKLLDQADPCVHTYVENTGEHILCTAGELHLERCLKDLTERFAGIEITHSEPAIPYRETFLSASDMNPPQNSQLGRGVHELLLSQYKITFRTFPLSGKVTDFLSQHQNSIKNILKTSTSSMDPVIESTGSSFLDKKSLLVAFEEVINQEEKSRELLSGFKVKLAGFGPSRVGCNILLSQDNLLGSLFEGTPAAFEYSDSIKNGFQLAVSEGPKANEPVQGMCVLVESVHKMSQDEIESIEDPRYQQHIVDLSGRLITSTRDAIHEAFLDWSPRIMWAIYSCDIQTSVDVLGKVYAVILQRHGKIISEEMKEGTPFFQIEAHVPVVEAFGLSEDIRKRTSGAAQPQLVFSGFECIDLDPFWVPTTEEELEELGDTADRENIARKHMNAIRRRKGLFIEEKVVENAEKQRTLKKN Ribosome maturation protein …: MPINQPSGQIKLTNVSLVRLKKARKRFEVACYQNKVQDYRKGIEKDLDEVLQIHQVFMNVSKGLVANKEDLQKCFGTTNVDDVIEEIMHKGEIQLSEKERQLMLNKVNNEMLTIVSAKCINPVSKKRYPPTMIHKALQELKFSPVINKPAKLQALEAIKLLVSKQIIPIVRAKMKVKVAISEPSRQPELIEKISKLIASSPGESTKPELDPWTCTGLIDPVNYRDLMTLCDKKGTVQVLDMAVIDNTTHN", "values": [
      {"measurement": "kcat", "setting": "[2]", "value": 0.0125, "unit": "s⁻¹"}
    ]},
    {"molecule": "Efl1 WT • Sdo1: binary complex of wild-type Efl1 GTPase and effector Sdo1 (protein, UniProt P53893 1-1110; Q07953 1-250, looked up, binary complex) Ribosome assembly protein 1: MPRVESETYKRLQNDPSCIRNICIVAHVDHGKTSLSDSLLASNGIISQRLAGKIRFLDARPDEQLRGITMESSAISLYFRVLRKQEGSDEPLVSEHLVNLIDSPGHIDFSSEVSAASRLCDGAVVLVDVVEGVCSQTVTVLRQCWTEKLKPILVLNKIDRLITELQLTPQEAYIHLSKVIEQVNSVIGSFFANERQLDDLFWREQLEKNENAEYIEKDDSGIYFNPTDNNVIFASAIDGWGFNIGQLAKFYEQKLGAKRENLQKVLWGDFYMDPKTKKIINNKGLKGRSLKPLFTSLILENIWKIYQNIITSRDSEMVEKIAKTLNIKLLARDLRSKDDKQLLRTIMGQWLPVSTAVLLTVIEKLPSPLESQTDRLNTILVSESDTAAMDPRLLKAMKTCDKEGPVSAYVSKMLSIPREELPVESKRIASSDELMERSRKAREEALNAAKHAGMVENMAMMDLNDNSKNTSDLYKRAKDTVMTPEVGEQTKPKPSRNNDVFCVVSEPSSALDLEFEYEGEDDSDSQDNFGLDFVPTDIDPNDPLSSMFEYEEEDPLLESIKQISEDVNDEVDDIFDEKEECLVAFARIYSGTLRVGQEISVLGPKYDPKCPEEHIETAIITHLYLFMGKELVPLDVCPSGNIVGIRGLAGKVLKSGTLIEKGVQGVNLAGVNFHFTPIVRVAVEPANPVEMSKLVRGLKLLDQADPCVHTYVENTGEHILCTAGELHLERCLKDLTERFAGIEITHSEPAIPYRETFLSASDMNPPQNSQLGRGVHELLLSQYKITFRTFPLSGKVTDFLSQHQNSIKNILKTSTSSMDPVIESTGSSFLDKKSLLVAFEEVINQEEKSRELLSGFKVKLAGFGPSRVGCNILLSQDNLLGSLFEGTPAAFEYSDSIKNGFQLAVSEGPLANEPVQGMCVLVESVHKMSQDEIESIEDPRYQQHIVDLSGRLITSTRDAIHEAFLDWSPRIMWAIYSCDIQTSVDVLGKVYAVILQRHGKIISEEMKEGTPFFQIEAHVPVVEAFGLSEDIRKRTSGAAQPQLVFSGFECIDLDPFWVPTTEEELEELGDTADRENIARKHMNAIRRRKGLFIEEKVVENAEKQRTLKKN Ribosome maturation protein …: MPINQPSGQIKLTNVSLVRLKKARKRFEVACYQNKVQDYRKGIEKDLDEVLQIHQVFMNVSKGLVANKEDLQKCFGTTNVDDVIEEIMHKGEIQLSEKERQLMLNKVNNEMLTIVSAKCINPVSKKRYPPTMIHKALQELKFSPVINKPAKLQALEAIKLLVSKQIIPIVRAKMKVKVAISEPSRQPELIEKISKLIASSPGESTKPELDPWTCTGLIDPVNYRDLMTLCDKKGTVQVLDMAVIDNTTHN", "values": [
      {"measurement": "kcat", "setting": "[2]", "value": 0.0107, "unit": "s⁻¹"}
    ]}
  ]
}
